Reference: the DeepSol protein solubility set

Assay: soluble on expression in E. coli; label from the status in PepcDB or PDB records

Row | Sequence | soluble on expression in E. coli
1 | MSLINVQNVSKTFILHQQNGVRLPVLNRASLTVNAGECVVLHGHSGSGKSTLLRSLYANYLPDEGQIQIKHGDEWVDLVTAPARKVVEIRKTTVGWVSQFLRVIPRISALEVVMQPLLDTGVPREACAAKAARLLTRLNVPERLWHLAPSTFSGGEQQRVNIARGFIVDYPILLLDEPTASLDAKNSAAVVELIREAKTRGAAIVGIFHDEAVRNDVADRLHPMGASEGHHHHHH | not soluble
2 | MAAGTFTAQNKVRPGVYINFKSEPQAAGTLGERGIVSMPLILSWGEPGKMITIEAGDDVFPKLGYSIMDAQLRLINEALKRAKTLLLYRLNAGTKAAVTVGNLTVTAKWGGARGNDITLVIQENIDDETKFDVSTLVDGAELDKQTVSDIAGLAANDWVIFSGTGALTETAGAPLINGSDGAVTNQAYIDYLAAVEIFDFNTIALPSTDDALKATFTAFAKRLRDDEGKKIQVVLENYPAADYEGVISVKNGVVLADGTILTAAQATAWVAGATAGARVNESLTYQGYDEAVDVAPRYTNAQIIAALQAGEFLFTASDNQALVEQDINTLTSFTADKGKQFAKNRVIRVLDGINNDFVRIFSKFYIGKVSNNADGRNLLKSECINYMNTLQDIDAIKNFDGQTDLTVQSGNDVDAVYIEAYAWPVDSIEKIYVRVRIKLEHHHHHH | soluble
3 | MGSDKIHHHHHHMDIPHQRLVYFQVTIEAGSVRQAAARLDIAPSAVSRQLSLIEEALGAPLLERSRQGVVPTPVGEMLLDYCRKRAALDDRFSETLDAYQRLETGHLSLTVGEGFVGDLLDTPLRTFTERYRGVRLDVNTGSTSDIIEAVVEDEAHIGLMYHERLHPQLRFWHSSRQPLVALMSPSHPLAAVENELPLATLSEHPMALWRTGHGVRQLVDEGFREAGLGQHVTMQTNSLSVLLHAARSELTLTLLPAFAAARELEDGALVARAVDCERFRQAHAHIITRVGRRMPKAGLQLLRHLERWMRAFKSRLVSG | not soluble
4 | MSLGQFSISEVGHFYIAANTSLKHIHVTCAIIERDGLVLAAQRSAVMSLPLKWEFPGGKIDPGESPEECLRRELVEEMAVHVRVGQSLPVSTHQYPTFSVTLYPFLCTIESGEIVLHEHVAVTWLPPDELHTLDWAEADLPVIKSYQQGCRMRDHEGHHHHHH | not soluble
5 | MFDRSRKGEYALLIQPLTDHSAEDGALEEFADLTRSAGATVAGSLAVRIHRPNPSTLLSSGKLKEIKETADATGADLILINHSLSPVQERNLEKSLERRVIDRTGLILDIFAQRACSHEGKLQVELAQLRHLATRLVRGWTHLERQRGGAIGLRGPGETQLETDRRLLQKRVEQLQKRLSKVEVQRTQMRRARVRSEVPRIALVGYTNSGKSTLFNALTGASAYTANQLFATLDPKVRRIVLPGSSAMLADTVGFVRHLPHELVAAFRSTLSEAREADLLLHVIDAADPLREERIDQVDEVLQAIGAGELPQLLVFNKIDCIEGAEVRQDAQDGIPDQARRERVWLSARHGHGVELLQQILNHRLKIQNVQSELRLPPSEGRLRARLHELKGVREEQTDEHGWLLKIDLSLAEIERLAASDYGIPLRALLQDHRDAWTPTLHSKYVSAEYLEHHHHHH | not soluble
6 | MQWSVWKMEESLDTLFSLLPDVRRVSCEQEMQRFTSDRRKLEWLSVRVLLYSMLQEDKEIGYSSEGKPHLTDNSSFISISHTKGYVAVILSSVAPVGIDIEQYGQRVKRVYDRFIRSDERVEPYQGDETWSMLLHWSAKETIFKSMENADADLRKLCLSHFIPQSEGVFQVREYATERQQLFTVGYRICPDFVLTWTVTIS | not soluble
